Measurements as given in the supplement of paper PMC9170038.

Test system: MS2 coat protein
Assay: apparent KD of MS2 coat protein; higher = weaker reporter binding
Details: Eterna round: R107
Summary of the method: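 Designed RNA switches were transcribed on-chip from Illumina sequencing clusters and titrated with SNAP-549-labelled MS2 coat protein in twofold steps from 0.7 or 1.5 nM up to 3 µM. Each step lasted 0.8–1.5 h at first and 10–20 min by the end, in 100 mM Tris-HCl pH 7.5, 80 mM KCl and 4 mM MgCl2, without or with constant ligand. Apparent KD is the median, for each design, of fits to normalised cluster binding curves.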

[1] = input ligand: theophylline 20 uM
[2] = input ligand: theophylline 2 mM
[3] = input ligand: tryptophan 2.4 mM

Row | Sequence | apparent KD of MS2 coat protein (input ligand: arginine 13.2 mM) | apparent KD of MS2 coat protein [1] | apparent KD of MS2 coat protein [2] | apparent KD of MS2 coat protein (input ligand: none) | apparent KD of MS2 coat protein [3]
1 | UGGUACAUGAGGAUCACCCAUGUCCUCAUCCGAGGACCGGUACGGCCGCCACUCGAAAUUGCGAUCGGCACAAAACAAAUGCUUG [theeternabot_sameState_MS2_Trp_A_39] | 87.8 nM | 205 nM | 179 nM | – | –
2 | GUUAUAUACUCGGCCGCCACUGAGAGAGUCAUGUAAACAUGAGGAUCACCCAUGUAAUAUAUAUACAGGACCGGGAGUAUGGUAA [4.E] | 12.1 nM | 18.6 nM | 14 nM | – | –
3 | CCUCAAUAGACGGCCGCCACUGAAACAUGAGGAUACAUGAGGAUCACCCAUGUGGGUGUGUUACGCAGGACCGGGUCAAGACCCG [Tryp B SS t1] | 304 nM | 435 nM | 1280 nM | – | –
4 | UGUAUGGAAACAUGAGGAUCACCCAUGUGGCGAGGACCGGUACGGCCGCCACUCGAGCAGCAAGCGUGUAUGACGCUGCUGCAUG [SS-trypA-0] | 27.3 nM | 60.6 nM | 49.7 nM | 40.9 nM | 25.1 nM
5 | AACCGAGGCUAUCCUCUACGACUAUGUGAUACCAGAAUAAUUUUAUUCCCUUGGCAGCAUGACAUGAGGAUCACCCAUGUCUCUU [SSTheo A #9] | 24 nM | 38.8 nM | – | – | 34 nM
6 | GGAUAGGACACGGCCGCCACUACCUAGGAUACUAGCAACAUUUGGGUACGUGAGGAUCACCCACGUAGGACCGGGUGUCCUAUCG | 15.2 nM | 19.1 nM | 14.5 nM | – | 20.4 nM
7 | CGCAACAUGAGGAUCACCCAUGUAAUGACGCGAGGACCGGUACGGCCGCCACUCGCCUGCCAAUGAGCGCAUGCGGCCUGGGUAU [Exclusion Tryp A GF7] | 11.9 nM | 16.1 nM | 13.5 nM | – | –
8 | AACCACGAGUCGGCCGCCACUUGCAACUAGUUUCAGAAGCAGAAACAUGAGGAUCACCCAUGUCGAAGGACCGGGACUUUACAGG [theeternabot_sameState_MS2_Trp_B_18] | 21.6 nM | 23.2 nM | 17.4 nM | – | –
9 | AAAAGAGGUGGAAGGAGCGGGAGACAUGAGGAUCACCCAUGUGAAGUUACGAAAGGUUCAGCCCAGGUAGGUCGCCAUGUCGAAA [eefemullin] | 1.33 nM | 55.1 nM | 58.8 nM | 17.5 nM | 33.7 nM
10 | ACACAUGAGGAUCACCCAUGUGCGCUGGAAGGAGCGCAGAAUCAUGCAGGUAGGUCGCCAGUGCCCUUUGAUAAAGGGAAAAGAG [Reor] | 52.2 nM | 99.7 nM | 76.9 nM | 43.3 nM | 64.3 nM
11 | AAUGUAUGGCACAUGAGGAUCACCCAUGUGCGAGGACCGGUACGGCCGCCACUCGGUCCUGGAUUCUUAUUACUAUACAUUAAUG [XTryp A #16] | 14 nM | 18.9 nM | 15.4 nM | – | –
12 | ACAUUUAACUGAAGGAGCGUGAUAUACAUGAGGAUCACCCAUGUGUCUUUCAUGAAUAAUUCACAGGUAGGUCGCAGACUAAUGA [JR_ExcArginiB_Sub008] | 40.4 nM | 50.3 nM | 45.4 nM | 36.1 nM | 37.6 nM
13 | GCUAGUGGCAGAAGGAGCGACAUUAAAAGUGGUCGAUACAUGAGGAUCACCCAUGUACUAUGUCAGGUAGGUCGCUGCCACUAGC [EAB NP+V+V2 #4 +-Same Structure] | 27.8 nM | 39.1 nM | 36.6 nM | 30.7 nM | 30.7 nM
14 | AAUAAACAUGAGGAUCACCCAUGUAUGGAAGGAGCGGUGAAUAAACCAGGUAGGUCGCCAGUGUGAGGGUCAUCUAUGUAAUCAA [Exclusion - Arginine A (Freestyle 3)] | 29.1 nM | 58.3 nM | 49.3 nM | 42.1 nM | 49.5 nM
15 | GUAUGGAAACAUACUAGGGUAUCAUGAGAUACCAGUACAGAAAUGUACCCUUGGCAGCUCUAGCAUACAUGAGGAUCACCCAUGU [Ex Theophylline A 6] | 15.4 nM | 20 nM | – | – | 12 nM
16 | UAGUCCGCGACGGCCGCCACUCGCUGAUGCACAUGUGUCCGGGACAUGAGGAUCACCCAUGUUUCGAGGACCGGGUCGAUCCUAA [Same State Tryptophan B GF 5] | 37.5 nM | 81.5 nM | 91.6 nM | – | –
17 | UCGUGUGUUUCGGAUACCAGUGAAAUCGAUACAUGAGGAUCACCCAUGUGAGAGGAUGUACACCCUUGGCAGCUGGCUGUUGCGG [zezmullin] | 24 nM | 36.2 nM | – | – | 34.2 nM
18 | UAUCUACAUGAAUAGGUUAUUCGAUUAUUUCGAGGACCGGUACGGCCGCCACUCGUUAACAUAUACAUGAGGAUCACCCAUGUUA [JR_Nu_SSTryptoA_Sub024] | 16 nM | 22.7 nM | 21.5 nM | – | –
